In publication PMC5700975 (2017):

B1: Myc3-iSH2-p110β (wild type) [bovine | human] / GST-Rab5 wild-type [canine] (parent complex)
chain 1: LYEDYTRTSQEIQMKRTAIEAFNETIKIFEEQCQTQERYSKEYIEKFKREGNETEIQRIMHNYEKLKSRISEIVDSRRRLEEDLKKQAAEYREIDKRMNSIKGGGGGGGMCFSFIMPPAMADILDIWAVDSQIASDGSIPVDFLLPTGIYIQLEVPREATISYIKQMLWKQVHNYPMFNLLMDIDSYMFACVNQTAVYEELEDETRRLCDVRPFLPVLKLVTRSCDPGEKLDSKIGVLIGKGLHEFDSLKDPEVNEFRRKMRKFSEEKILSLVGLSWMDWLKQTYPPEHEPSIPENLEDKLYGGKLIVAVHFENCQDVFSFQVSPNMNPIKVNELAIQKRLTIHGKEDEVSPYDYVLQVSGRVEYVFGDHPLIQFQYIRNCVMNRALPHFILVECCKIKKMYEQEMIAIEAAINRNSSNLPLPLPPKKTRIISHVWENNNPFQIVLVKGNKLNTEETVKVHVRAGLFHGTELLCKTIVSSEVSGKNDHIWNEPLEFDINICDLPRMARLCFAVYAVLDKVKTKKSTKTINPSKYQTIRKAGKVHYPVAWVNTMVFDFKGQLRTGDIILHSWSSFPDELEEMLNPMGTVQTNPYTENATALHVKFPENKKQPYYYPPFDKIIEKAAEIASSDSANVSSRGGKKFLPVLKEILDRDPLSQLCENEMDLIWTLRQDCREIFPQSLPKLLLSIKWNKLEDVAQLQALLQIWPKLPPREALELLDFNYPDQYVREYAVGCLRQMSDEELSQYLLQLVQVLKYEPFLDCALSRFLLERALGNRRIGQFLFWHLRSEVHIPAVSVQFGVILEAYCRGSVGHMKVLSKQVEALNKLKTLNSLIKLNAVKLNRAKGKEAMHTCLKQSAYREALSDLQSPLNPCVILSELYVEKCKYMDSKMKPLWLVYNNKVFGEDSVGVIFKNGDDLRQDMLTLQMLRLMDLLWKEAGLDLRMLPYGCLATGDRSGLIEVVSTSETIADIQLNSSNVAAAAAFNKDALLNWLKEYNSGDDLDRAIEEFTLSCAGYCVASYVLGIGDRHSDNIMVKKTGQLFHIDFGHILGNFKSKFGIKRERVPFILTYDFIHVIQQGKTGNTEKFGRFRQCCEDAYLILRRHGNLFITLFALMLTAGLPELTSVKDIQYLKDSLALGKSEEEALKQFKQKFDEALRESWTTKVNWMAHTVRKDYRS
chain 2: ANRGATRPNGPNTGNKICQFKLVLLGESAVGKSSLVLRFVKGQFHEFQESTIGAAFLTQTVCLDDTTVKFEIWDTAGQERYHSLAPMYYRGAQAAIVVYDITNEESFARAKNWVKELQRQASPNIVIALSGNKADLANKRAVDFQEAQSYADDNSLLFMETSAKTSMNVNEIFMAIAKKLPKNEPQNPGANSARGRGVDLTEPTQPTRSQCCSN

Variants of: B1
Assay: GST pull-down, anti-Myc immunoblot quantification; GST-Rab5 loaded with GppCp; parent: 100; read off a plot
For chain 1 L341A, the percent of parent was ~117 % WT. chain 1 Y353A showed a percent of parent of ~7 % WT. chain 1 D348R showed a percent of parent of ~190 % WT.

Variants of: B1
Assay: GST pull-down, anti-Myc immunoblot quantification; GST-Rab5 fusion proteins (10 µg) on glutathione Sepharose beads, GppCp-loaded; Myc-iSH2-p110β from transfected COS-1 lysates; parent: 100; read off a plot
For chain 2 Y81A, the percent of parent was ~8 % WT. For chain 2 H82E, the percent of parent was ~12 % WT. In the case of chain 2 L84A, the percent of parent is reported as ~16 % WT. With chain 2 I52A the percent of parent was ~7 % WT. In the case of chain 2 E46A, the percent of parent is reported as ~72 % WT. chain 2 R90E showed a percent of parent of ~20 % WT. With chain 2 F56A the percent of parent was ~24 % WT. chain 2 Q43E gave a percent of parent of ~115 % WT. With chain 2 Y88A the percent of parent was ~15 % WT. chain 2 H45A gave a percent of parent of ~110 % WT. Variant chain 2 R80E has a percent of parent of ~23 % WT. With chain 2 W73A the percent of parent was ~26 % WT. Variant chain 2 S83A has a percent of parent of ~112 % WT.
